Measured values from publication PMC4010968, “Nap1 stimulates homologous recombination by RAD51 and RAD54 in higher-ordered chromatin containing histone H1” (Scientific Reports, 2014).
Positions count from the first letter of the chain named. Numbers in names are those of the source.

T1: Human RAD54 (purified) (human, UniProt Q92698 1-747)
T1 construct: RAD54, human cDNA inserted into pFastBac HTc; purification details are in the Supplementary Methods; also called purified RAD54; source: recombinant human RAD54 baculovirus (pFastBac HTc vector), purified; details in Supplementary Methods
T1 sequence (looked up): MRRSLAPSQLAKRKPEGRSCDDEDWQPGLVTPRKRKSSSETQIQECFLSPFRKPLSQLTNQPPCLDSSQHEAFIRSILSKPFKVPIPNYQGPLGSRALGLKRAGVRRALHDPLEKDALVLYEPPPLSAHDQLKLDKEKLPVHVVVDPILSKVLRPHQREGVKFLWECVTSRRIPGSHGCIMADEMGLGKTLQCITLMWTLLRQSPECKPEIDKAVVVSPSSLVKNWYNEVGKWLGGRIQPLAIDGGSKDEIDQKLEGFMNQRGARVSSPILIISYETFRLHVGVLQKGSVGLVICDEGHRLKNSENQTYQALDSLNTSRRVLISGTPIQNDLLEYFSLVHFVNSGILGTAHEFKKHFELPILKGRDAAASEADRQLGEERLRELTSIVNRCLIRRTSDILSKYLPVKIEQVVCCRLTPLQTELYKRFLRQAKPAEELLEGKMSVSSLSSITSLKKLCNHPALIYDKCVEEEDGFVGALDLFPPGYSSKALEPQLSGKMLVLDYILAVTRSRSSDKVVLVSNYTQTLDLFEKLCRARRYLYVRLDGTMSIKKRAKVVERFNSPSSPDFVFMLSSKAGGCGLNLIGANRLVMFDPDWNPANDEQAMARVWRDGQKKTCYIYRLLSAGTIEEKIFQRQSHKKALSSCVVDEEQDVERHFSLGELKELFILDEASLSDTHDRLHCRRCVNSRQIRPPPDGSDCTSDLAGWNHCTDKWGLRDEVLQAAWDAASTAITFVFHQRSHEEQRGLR

B1: Human Nap1 (purified, wild type) (natural protein, UniProt P55209 1-391, looked up)
chain: MADIDNKEQSELDQDLDDVEEVEEEETGEETKLKARQLTVQMMQNPQILAALQERLDGLVETPTGYIESLPRVVKRRVNALKNLQVKCAQIEAKFYEEVHDLERKYAVLYQPLFDKRFEIINAIYEPTEEECEWKPDEEDEISEELKEKAKIEDEKKDEEKEDPKGIPEFWLTVFKNVDLLSDMVQEHDEPILKHLKDIKVKFSDAGQPMSFVLEFHFEPNEYFTNEVLTKTYRMRSEPDDSDPFSFDGPEIMGCTGCQIDWKKGKNVTLKTIKKKQKHKGRGTVRTVTKTVSNDSFFNFFAPPEVPESGDLDDDAEAILAADFEIGHFLRERIIPRSVLYFTGEAIEDDDDDYDEEGEEADEEGEEEGDEENDPDYDPKKDQNPAECKQQ
notes: Nap1 (histone chaperone, nucleosome assembly protein 1), human; also called purified Nap1; wild type Nap1
B2: Nap1(E215,219,222,227K) mutant (natural protein, human, UniProt P55209 1-391, looked up)
chain: B1 chain with E215K, E219K, E222K, E227K
notes: Nap1, human, with Glu215, Glu219, Glu222 and Glu227 replaced by Lys; A trace amount of a read-through product was present as a contaminant in the purified fraction; also called Nap1(E215K,E219K,E222K,E227K) mutant; Nap1 mutant

Columns and labels:
Human RAD54 (purified) [1] = target: T1, Human RAD54 (purified); test: pull-down; Nap1-conjugated beads with purified RAD51 alone or purified RAD54 alone; SDS-PAGE with Coomassie Brilliant Blue staining; details: both partners purified
Human RAD54 (purified) [2] = target: T1, Human RAD54 (purified); test: native gel or EMSA; Nap1 or mutant incubated with the indicated amounts of RAD54; 5% native PAGE with Coomassie Brilliant Blue staining; RAD54 alone does not enter the gel; details: both partners purified

binding result (Human RAD54 (purified) [1]) | binding result (Human RAD54 (purified) [2]) | Binder
binds | – | B1
– | binds | B2
